For assay [1], the target named is RSV strain B18537 DS-Cav1 F glycoprotein (prefusion-stabilized soluble F trimer, subtype B) (RSV subtype B strain B18537 | phage T4). The assay is described as follows: crystal structure; crystals in 1.2M ammonium sulfate, 0.1M sodium acetate pH5.5, 0.1M lithium sulfate; space group P4(1)32, 1 protomer per asymmetric unit; trimer by crystal symmetry.
For assay [2] the target is unchanged. Put plainly: SEC; 120 mL Superdex-200 gel filtration column in PBS buffer; single monodisperse peak compared with protein standards.

A word on the stoichiometry N: it is the number of molecules, sites or subunits per partner or assembly.

For “RSV strain B18537 DS-Cav1 F glycoprotein (prefusion-stabilized soluble F trimer, subtype B) (domain or fragment)”, the stoichiometry N in assay [1] and in assay [2] was 3 in each case.

The values are drawn from PMC6922093.
